Measurements reported in publication PMC12000442 (Nature Communications, 2025).

Biological target: T1, NAA10^R4S-3xFLAG (human, UniProt P41227 1-235, R4S)
T1 sequence: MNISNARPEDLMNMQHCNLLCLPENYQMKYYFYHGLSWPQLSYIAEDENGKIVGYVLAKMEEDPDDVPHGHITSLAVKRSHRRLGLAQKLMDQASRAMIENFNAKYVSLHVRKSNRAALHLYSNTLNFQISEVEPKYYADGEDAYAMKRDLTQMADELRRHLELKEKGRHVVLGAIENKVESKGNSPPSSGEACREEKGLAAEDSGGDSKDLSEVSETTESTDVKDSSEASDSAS
Assay: co-IP

binding capacity relative to WT: 0.5 relative to WT (WT = 1.0)
B1: NAA15 (natural protein)
chain: MPAVSLPPKENALFKRILRCYEHKQYRNGLKFCKQILSNPKFAEHGETLAMKGLTLNCLGKKEEAYELVRRGLRNDLKSHVCWHVYGLLQRSDKKYDEAIKCYRNALKWDKDNLQILRDLSLLQIQMRDLEGYRETRYQLLQLRPAQRASWIGYAIAYHLLEDYEMAAKILEEFRKTQQTSPDKVDYEYSELLLYQNQVLREAGLYREALEHLCTYEKQICDKLAVEETKGELLLQLCRLEDAADVYRGLQERNPENWAYYKGLEKALKPANMLERLKIYEEAWTKYPRGLVPRRLPLNFLSGEKFKECLDKFLRMNFSKGCPPVFNTLRSLYKDKEKVAIIEELVVGYETSLKSCRLFNPNDDGKEEPPTTLLWVQYYLAQHYDKIGQPSIALEYINTAIESTPTLIELFLVKAKIYKHAGNIKEAARWMDEAQALDTADRFINSKCAKYMLKANLIKEAEEMCSKFTREGTSAVENLNEMQCMWFQTECAQAYKAMNKFGEALKKCHEIERHFIEITDDQFDFHTYCMRKITLRSYVDLLKLEDVLRQHPFYFKAARIAIEIYLKLHDNPLTDENKEHEADTANMSDKELKKLRNKQRRAQKKAQIEEEKKNAEKEKQQRNQKKKKDDDDEEIGGPKEELIPEKLAKVETPLEEAIKFLTPLKNLVKNKIETHLFAFEIYFRKEKFLLMLQSVKRAFAIDSSHPWLHECMIRLFNTAVCESKDLSDTVRTVLKQEMNRLFGATNPKNFNETFLKRNSDSLPHRLSAAKMVYYLDPSSQKRAIELATTLDESLTNRNLQTCMEVLEALYDGSLGDCKEAAEIYRANCHKLFPYALAFMPPGYEEDMKITVNGDSSAEAEELANEI
